In patent US20250277196A1, “EPSPS MUTANTS AND METHOD OF ITS USES” (CROPEDIT BIOTECHNOLOGY INC., priority 2021, published 2025):
Numbering of substitutions follows the chain as printed. Numbers in names are those of the source.

B1: OsTIPS: mutated rice EPSPS with mutation T173I and P177S (SEQ ID NO:35); same mutation type as glyphosate-resistant corn GA21 (protein)
chain: MAAKAEEIVLQPIREISGAVQLPGSKSLSNRILLLSALSEGTTVVDNLLNSEDVHYMLEALKALGLSVEADKVAKRAVVVGCGGKFPVEKDAKEEVQLFLGNAGIAMRSLTAAVTAAGGNATYVLDGVPRMRERPIGDLVVGLKQLGADVDCFLGTECPPVRVKGIGGLPGGKVKLSGSISSQYLSALLMAAPLALGDVEIEIIDKLISIPYVEMTLRLMERFGVKAEHSDSWDRFYIKGGQKYKSPGNAYVEGDASSASYFLAGAAITGGTVTVQGCGTTSLQGDVKFAEVLEMMGAKVTWTDTSVTVTGPPREPYGKKHLKAVDVNMNKMPDVAMTLAVVALFADGPTAIRDVASWRVKETERMVAIRTELTKLGASVEEGPDYCIITPPEKLNITAIDTYDDHRMAMAFSLAACADVPVTIRDPGCTRKTFPNYFDVLSTFVRN
modifications: This sequence is synthesized in lab.
notes: same mutation type as glyphosate-resistant corn GA21
B2: 1-552: rice EPSPS with G172A, P177S, K399N, V403A and T466S mutations (protein)
chain: B1 chain with G104A, I105T, K331N, V335A
modifications: This sequence is synthesized in lab.
notes: rice EPSPS with G172A, P177S, K399N, V403A and T466S mutations
B3: SEQ ID NO:23: rice EPSPS with A73S, G172A, P177S, L214F and V403A mutations; sample code not printed (protein)
chain: B1 chain with A5S, G104A, I105T, L146F, V335A
modifications: This sequence is synthesized in lab.
B4: 1-547: rice EPSPS with E137D, G172A, P177S, L253M and V403A mutations (protein)
chain: B1 chain with E69D, G104A, I105T, L185M, V335A
modifications: This sequence is synthesized in lab.
notes: rice EPSPS with E137D, G172A, P177S, L253M and V403A mutations
B5: 1-599: rice EPSPS with A73G, L134F, G172A, P177S, G265V, S374R and V403A mutations (protein)
chain: B1 chain with A5G, L66F, G104A, I105T, G197V, S306R, V335A
modifications: This sequence is synthesized in lab.
notes: rice EPSPS with A73G, L134F, G172A, P177S, G265V, S374R and V403A mutations
B6: SEQ ID NO:19: rice EPSPS with A73K, D114H, V136M, K161E, G172A, P177S, A260T and V403A mutations; sample code not printed (protein)
chain: B1 chain with A5K, D46H, V68M, K93E, G104A, I105T, A192T, V335A
modifications: This sequence is synthesized in lab.
B7: 1-139: rice EPSPS with A73T, E86G, G172A, P177S and V403A mutations (protein)
chain: B1 chain with A5T, E89G, G104A, I105T, V335A
modifications: This sequence is synthesized in lab.
notes: rice EPSPS with A73T, E86G, G172A, P177S and V403A mutations
B8: 1-98: rice EPSPS with A73T, G172A, P177S and V403A mutations (protein)
chain: B1 chain with A5T, G104A, I105T, V335A
modifications: This sequence is synthesized in lab.
notes: rice EPSPS with A73T, G172A, P177S and V403A mutations
B9: 3-33: rice EPSPS with G172A, P177S, V208A, L264H, V403A and R514K mutations (protein)
chain: B1 chain with G104A, I105T, V140A, L196H, V335A, R446K
modifications: This sequence is synthesized in lab.
notes: rice EPSPS with G172A, P177S, V208A, L264H, V403A and R514K mutations
B10: 1-68: rice EPSPS with A70V, G172A, P177S, V403A and R514S mutations (protein)
chain: B1 chain with A2V, G104A, I105T, V335A, R446S
modifications: This sequence is synthesized in lab.
notes: rice EPSPS with A70V, G172A, P177S, V403A and R514S mutations
B11: 3-36: rice EPSPS with V113M, G172A, P177S and V403A mutations (protein)
chain: B1 chain with V45M, G104A, I105T, V335A
modifications: This sequence is synthesized in lab.
notes: rice EPSPS with V113M, G172A, P177S and V403A mutations
B12: 2-46: rice EPSPS with G172A, P177S, N246D and V403A mutations (protein)
chain: B1 chain with G104A, I105T, N249D, V335A
modifications: This sequence is synthesized in lab.
notes: rice EPSPS with G172A, P177S, N246D and V403A mutations
B13: 2-47: rice EPSPS with G172A, M175A, P177S, M258L, K356E, V403A and F512I mutations (protein)
chain: B1 chain with G104A, I105T, M107A, M190L, K288E, V335A, F444I
modifications: This sequence is synthesized in lab.
notes: rice EPSPS with G172A, M175A, P177S, M258L, K356E, V403A and F512I mutations
B14: 2-5: rice EPSPS with E163K, G172A, P177S, A216V, L253M, H389R and V403A mutations (protein)
chain: B1 chain with E95K, G104A, I105T, A148V, L185M, H321R, V335A
modifications: This sequence is synthesized in lab.
notes: rice EPSPS with E163K, G172A, P177S, A216V, L253M, H389R and V403A mutations
B15: 1-411: rice EPSPS with G172A, P177S, Y252F and V403A mutations (protein)
chain: B1 chain with G104A, I105T, Y184F, V335A
modifications: This sequence is synthesized in lab.
notes: rice EPSPS with G172A, P177S, Y252F and V403A mutations
B16: 1-386: rice EPSPS with G172A, P177S, V403A and F502V mutations (protein)
chain: B1 chain with G104A, I105T, V335A, F434V
modifications: This sequence is synthesized in lab.
notes: rice EPSPS with G172A, P177S, V403A and F502V mutations
B17: 1-246: rice EPSPS with A145G, G172A, P177S, V403A, T442S and D472E mutations (protein)
chain: B1 chain with A77G, G104A, I105T, V335A, T374S, D404E
modifications: This sequence is synthesized in lab.
notes: rice EPSPS with A145G, G172A, P177S, V403A, T442S and D472E mutations

What follows are molecules tested on Escherichia coli DH5α with EPSPS gene knocked out (assay: Resistance test of rice EPSPS mutants from error-prone PCR on OsGPV: colony growth on medium with 0, 100 mM and 125 mM glyphosate (FIG. 7)). Conditions: 100 mM glyphosate.
Format: cell-based
From the text: In order to further improve the glyphosate resistance and develop highly resistant rice EPSPS mutants that can meet commercial production requirements, we used OsGPV as a template to perform random mutations, with high-concentration glyphosate screening, and to identify EPSPS mutant that can improve the glyphosate resistance.
We used OsGPV(SEQ ID NO:6) as a template to perform error-prone PCR. (With GeneMorph II Random Mutagenesis Kit, #200550, Agilent Technologies).
a) The recovered product was digested with EcoRI and SbfI, and then ligated to the pKED2 vector after the same double digestion with T4 DNA ligase to obtain the ligation product to obtain the vector carrying the rice EPSPS gene mutant.
b) Transformed the above vector into Escherichia coli DH5α with EPSPS gene knocked out. The transformation steps were as follows: add the above ligation product to 50 μl E. coli DH5α competent cells with EPSPS gene knocked out, mix well and incubate on ice for 30 min, then after a heat shock at 42° C. for 90 s, immediately place it in an ice bath on ice for 2 min after taking it out. After the ice bath, add 500 μl of LB liquid medium and resuscitate at 37° C. at 180 r/min for 45 min. The transformed Escherichia coli was a mutant library expressing rice EPSPS mutant genes obtained on the template basis of OsGPV.
5) Centrifuged the transformed product obtained above at 3000 rpm for 5 min, discarded the supernatant, then resuspended it in 1 ml M9 liquid medium, added 200 μl M9 liquid medium to resuspend and inoculated it on an M9 plate containing 75 mM glyphosate. Incubated at 37 degrees for 24 hours.
Pick and saved the single colonies grown in the above screening plates, and conduct further resistance identification and sequencing
ii. Resistance test of rice mutants. In this example, the wild-type rice EPSPS gene OsWT, the most widely used commercial glyphosate-resistant gene CP4EPSPS, the rice mutantOsTIPS, which had the same mutation type with commercial glyphosate-resistant corn GA21, and the rice mutant OsGPV with the highly glyphosate-resistant rice EPSPS mutant gene obtained in this study were transformed as control, and the newly obtained rice EPSPS mutants were transformed as the experimental group, and the glyphosate resistance among the control and the mutants were compared. The monoclonal bacteria of the control group and the experimental group were respectively inoculated into a medium containing 0, 100 mM and 125 mM glyphosate, and the growth of colonies in each group was observed.

Row | Molecule | colony growth under 100 mM glyphosate
1 | B1 | did not grow

Same assay, conditions: 125 mM glyphosate pressure, FIG. 7

Row | Molecule | colony growth status compared with OsGPV
2 | B2 | significantly higher than OsGPV
3 | B3 | significantly higher than OsGPV
4 | B4 | significantly higher than OsGPV
5 | B5 | significantly higher than OsGPV
6 | B6 | significantly higher than OsGPV
7 | B7 | significantly higher than OsGPV
8 | B8 | significantly higher than OsGPV
9 | B9 | significantly higher than OsGPV
10 | B10 | significantly higher than OsGPV
11 | B11 | significantly higher than OsGPV
12 | B12 | significantly higher than OsGPV
13 | B13 | significantly higher than OsGPV
14 | B14 | significantly higher than OsGPV
15 | B15 | significantly higher than OsGPV
16 | B16 | significantly higher than OsGPV
17 | B17 | significantly higher than OsGPV
